Data from the nanobody polyreactivity screen of Harvey et al. (2022).

Assay: yeast display, Sf9 membrane polyspecificity reagent, FACS + sequencing; frameworks hold sequencing errors
In short: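 A nanobody's polyreactivity label depends on the gate it was sorted from. Yeast display cells were stained with 10% biotinylated, detergent-solubilized Sf9 membrane reagent for 1 hour at 4 °C, enriched on streptavidin microbeads and sorted by FACS. The low and high (top ~1%) gates were set on anti-HA fluorescence for expression and streptavidin fluorescence for reagent binding.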

Sequence	polyreactivity (PSR sort gate)
QVQLVESGGALVQAGGSLRLSCAASRSIFSNAMGWYRQAPRKERELDAAITGRGGRTYYADSVKGRFTISRDNAKYTVYLQMNSLNPEDTAVYYCARDSPWSSRYRYRAFDYWGQGTQVTVSS	high polyreactivity
QVQLVESGGALVQAGGSLRLSCAPSGFTFMRYAMGWYRQAPGKERELDAAIRGTGTSTYYADSVKVRFTISRDNAKNTVYLQMNSLNPEDTAVYYCNKVAGRSPYTRYDYWAQGTQVTVSS	low polyreactivity
QVQLVESGGALVQAGRSLRLSCAASGSIFSSYAMGRYRQAPGKERELVAAISRSGGRTYYADSVKGRFTITRDNAKNTVYLQMNSLKTEDTAVYYCAARRVLGEYGYWGQGTQVTVSS	high polyreactivity
QVQLVESGGALVQAGVSLRLSCAASGSIFRFYAMGWNKQAPGKERELVAAITSGGSTNYADSVKGRFTISRDNEKNTVYLQMNSLKPEDTAVFYCAAELVFFFIFDYWGQGTQVTVSS	low polyreactivity
QVQLVESGGCIVQAGGSLRLSCAATGRTFYIYAMGWYRQPPGKESELVATITRGGSTNYADSVKGRFTSSRDNAKNTVYLQMNSLKPVDTAVYYCAAESYFTNWRNRYDYWGQGSQVTVSS	high polyreactivity
QVQLVESGGCIVQEGGSLRLSGAASGSTIRGNAMGWYRHAHGQEREFVADITRNGGRTYYADSVKGRFTISRDNAKNTVYLQMNSLKPEDTAVSYCAKRDAYFVSQRNMDYWGQGTQVTVSS	high polyreactivity
QVQLVESGGCLDQAGGSLRLSCAASGITFGPYAMGWYSQAPGKERELVAAITWGGGSTYYADSVKGRFTLSRDNAKNTDYLLMNSLKPEDTADYYCNAEGSTTSRYLPYDYWGQGTQVTVSS	low polyreactivity
QVQLVESGGCLFQAGGSLRLSCAASGFIFGTYAIGWYRQAPGKERELVAAISVGRGSTYYADSVKGRFTISRDNAKNTVYLQMNSLKPEDTAVYYCAAVQLYQKHQITYVAHEYWGHGTQVTVSS	low polyreactivity
QVQLVESGGCLVKAGGSLRLSCAASGSTFHYYPMGWYRQAPGKERELFAAISTSGVRTYYADSVKGRFTISRDNAKNTVYLQMNRLKPEDTAVYYCAARRGYVKGKTYDYWGQGSQVTVSS	high polyreactivity
QVQLVESGGCLVQAGGRLRLSFAASGLTFEQYAMGWYRQAPGKERELVPAISRRGTSTYYADSVKGRFTISRDNAKNTVFLQMNSLKPEDTAVYYCNAGWWYLGSPFDRDYWGQGTQVTVSS	high polyreactivity
QVQLVESGGCLVQAGGSHRLSCAASGSIFKYYTMGWYRQAPGKERELDAAITTRGTSTNYADSVKGRFTISRDNAKHTVYFQMNSLKPEDTAVYYCAARLSSLISMNYWGQGTQVTVSS	high polyreactivity
QVQLVESGGCLVQAGGSLRISCAASGLTFKGYTMGWYRQAPGKEREFVAAITGGVGSTYYADSVKGRFTISRDNAKNTVYVHMKSLQPEDTAVYYCNSVSYGYTDLYIFYTGYYYWGQGTQVTVSS	low polyreactivity
QVQLVESGGCLVQAGGSLRLICAASGRTFIAKAMGWYRQAPGKERELVAVITLNGGSTYYADSVKGRFTISRDNAKSTVYLQMNSLKPEDTAVYYCAAGRYYNLRATHGYWGQGTQVTVSS	low polyreactivity
QVQLVESGGCLVQAGGSLRLISAASGSTFQRYAIGWYRQAPGKERELVAAITWSNGSTYYADSVKGRFTISRDNAKNTVYLQMISLKPEDTAVYYCAAEVHFGGDYWGQGTQVTVSS	low polyreactivity
QVQLVESGGCLVQAGGSLRLSCAASAFIFVGNDMGLYRQAPGKEREFVAAISSGGTTNYADSVKGRFTISRDNAKNTVYLQMNSLKPEDTAVYYCGADYDYRQGYDSVHLDYWVQGTQVTVSS	low polyreactivity
QVQLVESGGCLVQAGGSLRLSCAASGFIFAYYAMGWYRQARGKERELVAAISYSGSTKYSDSVKGRFTISRDNSKNTVNLQMNSLKPEDTAVYYCAADRVWGTPQAYVPSQFDYWGQGTQVTVSS	low polyreactivity
QVQLVESGGCLVQAGGSLRLSCAASGFILSGNTMGWYRQAPGKERELVAGINDDSSTYYADSVKGGFTISRDNAKNTVYLQMNSLKPEDTAVYYCNAGQSWYPSWYYYWGQGTQVTVSS	low polyreactivity
QVQLVESGGCLVQAGGSLRLSCAASGGIFPGNAMGWYRQAPGKERELVATISYSGGSTYYADSVKGRFTISRDNAKNTVYLQMNSLKPEDTAVYYCAARGYKPTRSRRTEYGYWGQGTQVTVSS	high polyreactivity
QVQLVESGGCLVQAGGSLRLSCAASGIIFDDYAMGWYRQAPGKERELVAAISVSGGSTYYADSVKGRFTISRDNAKNTVYLQMKSLKPEDTAVYYCAARLRQPYSRGNYWGQGTQVTVSS	high polyreactivity
QVQLVESGGCLVQAGGSLRLSCAASGIIFTLYAMGWYRQAPGKEREIVAAISGSGGSTYYADSVKGRFTISRDNAKNTVYLQMNSLKPEDTAVYYCAARGVRGTGLDSRMYYWGQGTQVTVSS	high polyreactivity
QVQLVESGGCLVQAGGSLRLSCAASGIIFYRYAMGWYRQAPGKERELVAAITYSGGRTYYADSVKARFTISRDNAKNTVYLQMNSLKTEDTAVSDCAAAGRFGDYWGQGTQVTVSS	high polyreactivity
QVQLVESGGCLVQAGGSLRLSCAASGITFGRNTMGWSRQAPGKERELVAAIDSGGNTYADSVKGRFTISRDNAKNTVYLQMNSLKPEDTAVYYCAVDGGEFSSYGYWVQGTQVTVSS	low polyreactivity
QVQLVESGGCLVQAGGSLRLSCAASGITFRYYPMGWYRQAPGKERELVATISTNGGTTYYADSVKGRFTISRDNAKNTVYLQMNSLKPEDTAVYYCNRKIYVSSARYPSEYGYWGQGTQVTVSS	high polyreactivity
QVQLVESGGCLVQAGGSLRLSCAASGLIFYTYAMGWYRQAPGKERELVASISSGGDSTYYADSVKGRFTISRDNAKNTVYLQMNSLKPEDTAVYYCNADYYYSYPYTYYYWGQGTQVTVSS	low polyreactivity
QVQLVESGGCLVQAGGSLRLSCAASGLLFYFYAMGWYRQAPGKEREFVAAISSGGDTYYADSVKGRFTISRDNSKNTVYLQMNSLKPVDTAVYYCAVGTVYLTYRGYEYWGQGTQVTVSS	high polyreactivity
QVQLVESGGCLVQAGGSLRLSCAASGNIFGIYTMGLYTHAPGKERELVASIRTGGSTNYADSVKGRFTISRDNAKNTDYLQMNSLKPEDSSVYYCNARKLFSSSYGYWGQGTQVTVSS	high polyreactivity
QVQLVESGGCLVQAGGSLRLSCAASGRIFAWYAMGWYRQAPGKERELVAAISDSGGSTYYADSVKGRFTISRDNAKNTVYLQMNSLKQEDTAVYYCAADQVVYSAYWSDHYDYWGQGTQVTVSS	low polyreactivity
QVQLVESGGCLVQAGGSLRLSCAASGRIFGVYAMGWYRQAPGKERELVAAISEGGGSTNYADSVKGRFTISRDNANNTVYLQMNSLKPEDTAVYYCAATSRTGVRRYYSWGQGTQVTVSS	low polyreactivity
QVQLVESGGCLVQAGGSLRLSCAASGRIFLPYAMVWYRQAPGKERELVASITRRGGTTYYADSVKGRFTISRDNAKNTVYLQMNSLKPADSAVYYCAKESWPYGTRGYYHYEYWGQGTQVTVSS	high polyreactivity
QVQLVESGGCLVQAGGSLRLSCAASGRIFQRYAMGWYRQAPGKERELVAGITSAGGSTYYADSVKGRFTISRDNAKNTVYLQMKRLKPEDTAVYYCNAGGELRYYGYRAGGTTRSYDYWGQGTQVTVSS	low polyreactivity
